Measured values as given in publication PMC3525766 (Journal of structural biology, 2012).

Biological target: the molecule itself
Test: cross-linking

B1: coiled-coil domain of human LRRFIP1 (LRRFIP1-CC) (domain or fragment)
chain: MDSLAEVEEKYKKAMVSNAQLDNEKTNFMYQVDTLKDMLLELEEQLAESRRQYEEKNKEFEREKHAHSILQFQFAEVKEALKQREEMLEK
stoichiometry N: 2
